{"source": "IntAct's records for PubMed 15694340", "parents": {"B1": {"name": "Bcl-2-like protein 11 (Mus musculus), O54918 (parent)", "chain": "MAKQPSDVSSECDREGGQLQPAERPPQLRPGAPTSLQTEPQGNPDGEGDRCPHGSPQGPLAPPASPGPFATRSPLFIFVRRSSLLSRSSSGYFSFDTDRSPAPMSCDKSTQTPSPPCQAFNHYLSAMASIRQSQEEPEDLRPEIRIAQELRRIGDEFNETYTRRVFANDYREAEDHPQMVILQLLRFIFRLVWRRH"}, "B2": {"name": "Phorbol-12-myristate-13-acetate-induced protein 1 (Homo sapiens), Q13794 (parent)", "chain": "MPGKKARKNAQPSPARAPAELEVECATQLRRFGDKLNFRQKLLNLISKLFCSGT"}, "B3": {"name": "Phorbol-12-myristate-13-acetate-induced protein 1 (Homo sapiens), Q13794 (parent)", "chain": "B2 chain", "partner": "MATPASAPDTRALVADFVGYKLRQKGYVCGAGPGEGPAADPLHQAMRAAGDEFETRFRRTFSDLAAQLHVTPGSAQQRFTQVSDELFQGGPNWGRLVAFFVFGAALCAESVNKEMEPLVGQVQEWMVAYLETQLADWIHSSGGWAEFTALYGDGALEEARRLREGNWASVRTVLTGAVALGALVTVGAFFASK"}}}
{"variants_of": "B1", "conditions": "with mcl1_mouse Mcl1, P97287"}
{"variant": "I146E", "effect of a mutation on the interaction": "decreasing interaction"}
{"variant": "L150E", "effect of a mutation on the interaction": "decreasing interaction"}
{"variant": "I153E", "effect of a mutation on the interaction": "decreasing interaction"}
{"variant": "F157E", "effect of a mutation on the interaction": "decreasing interaction"}
{"variants_of": "B2", "conditions": "with BCL2L1, Q07817-1"}
{"variant": "F32I", "effect of a mutation on the interaction": "increasing interaction"}
{"variant": "K35E", "effect of a mutation on the interaction": "increasing interaction"}
{"variants_of": "B3", "conditions": "with BCL2L2, Q92843"}
{"variant": "F32I", "effect of a mutation on the interaction": "increasing interaction"}
{"variant": "K35E", "effect of a mutation on the interaction": "increasing interaction"}
